This note sets out measurements from patent publication US20160272683A1 (Novo Nordisk, published 2016).

Numbered stars: 1 amine (or outer) side, 2 acyl side, 3 side chain; on linkers, the order of the positions; unused ones are H or OH. * marks the point of attachment. C20 diacid = O=C(O)CCCCCCCCCCCCCCCCCCC(=O)*; C18 diacid = O=C(O)CCCCCCCCCCCCCCCCC(=O)*; γGlu = O=C(O)[C@H](CCC(=O)[*:2])N[*:1]

In this assay the target is T1, human calcitonin receptor (human, UniProt P30988 25-474).
T1 construct: whole, on cells; also called hCT-R; hCTR
T1 sequence (looked up): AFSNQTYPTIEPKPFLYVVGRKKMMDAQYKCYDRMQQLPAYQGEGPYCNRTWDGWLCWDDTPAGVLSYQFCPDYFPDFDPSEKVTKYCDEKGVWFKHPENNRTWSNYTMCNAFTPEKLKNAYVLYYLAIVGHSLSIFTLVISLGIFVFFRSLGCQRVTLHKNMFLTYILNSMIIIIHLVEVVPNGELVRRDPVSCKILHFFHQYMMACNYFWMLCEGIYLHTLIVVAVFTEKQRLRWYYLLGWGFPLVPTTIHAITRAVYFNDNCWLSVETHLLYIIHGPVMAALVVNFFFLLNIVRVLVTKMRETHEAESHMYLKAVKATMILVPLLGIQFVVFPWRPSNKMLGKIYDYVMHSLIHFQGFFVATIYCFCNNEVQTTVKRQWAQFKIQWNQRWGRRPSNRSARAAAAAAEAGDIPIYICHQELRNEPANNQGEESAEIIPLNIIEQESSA
Briefly: whole-cell competition vs 125I-human calcitonin (Assay VIIa). In short, it runs like this:
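BHK tk'ts 13 cells stably co-expressing human calcitonin receptor and a CRE-luciferase reporter, seeded overnight at 37 °C. Bound tracer counted by scintillation after cold HBSS washes and NaOH/SDS lysis; IC₅₀ from one-site competition fit taken as receptor affinity.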

B1: [N-terminal(C18 diacid-gGlu), des1, 6T, 9V, 30S, 31G]mimylin (peptide)
peptide: {C18 diacid-γGlu}-ASELTTAVLGRLSAELHELATLPRTETGSGSP-NH2
SMILES: CC(C)C[C@H](NC(=O)[C@H](CCC(=O)O)NC(=O)[C@H](Cc1c[nH]cn1)NC(=O)[C@H](CC(C)C)NC(=O)[C@H](CCC(=O)O)NC(=O)[C@H](C)NC(=O)[C@H](CO)NC(=O)[C@H](CC(C)C)NC(=O)[C@H](CCCNC(=N)N)NC(=O)CNC(=O)[C@H](CC(C)C)NC(=O)[C@@H](NC(=O)[C@H](C)NC(=O)[C@@H](NC(=O)[C@@H](NC(=O)[C@H](CC(C)C)NC(=O)[C@H](CCC(=O)O)NC(=O)[C@H](CO)NC(=O)[C@H](C)NC(=O)CC[C@H](NC(=O)CCCCCCCCCCCCCCCCC(=O)O)C(=O)O)[C@@H](C)O)[C@@H](C)O)C(C)C)C(=O)N[C@@H](C)C(=O)N[C@H](C(=O)N[C@@H](CC(C)C)C(=O)N1CCC[C@H]1C(=O)N[C@@H](CCCNC(=N)N)C(=O)N[C@H](C(=O)N[C@@H](CCC(=O)O)C(=O)N[C@H](C(=O)NCC(=O)N[C@@H](CO)C(=O)NCC(=O)N[C@@H](CO)C(=O)N1CCC[C@H]1C(N)=O)[C@@H](C)O)[C@@H](C)O)[C@@H](C)O
notes: also called Ex. #85
As for B1, the IC50 – broadly, the concentration that gives 50% inhibition – was 0.821 nM.

B2: [N-terminal(C20 diacid-gGlu), des1, 9T, 21S, 23Y, 30S, 31G]mimylin (peptide)
peptide: {C20 diacid-γGlu}-ASELSTATLGRLSAELHELSTYPRTETGSGSP-NH2
SMILES: CC(C)C[C@H](NC(=O)[C@H](CCCNC(=N)N)NC(=O)CNC(=O)[C@H](CC(C)C)NC(=O)[C@@H](NC(=O)[C@H](C)NC(=O)[C@@H](NC(=O)[C@H](CO)NC(=O)[C@H](CC(C)C)NC(=O)[C@H](CCC(=O)O)NC(=O)[C@H](CO)NC(=O)[C@H](C)NC(=O)CC[C@H](NC(=O)CCCCCCCCCCCCCCCCCCC(=O)O)C(=O)O)[C@@H](C)O)[C@@H](C)O)C(=O)N[C@@H](CO)C(=O)N[C@@H](C)C(=O)N[C@@H](CCC(=O)O)C(=O)N[C@@H](CC(C)C)C(=O)N[C@@H](Cc1c[nH]cn1)C(=O)N[C@@H](CCC(=O)O)C(=O)N[C@@H](CC(C)C)C(=O)N[C@@H](CO)C(=O)N[C@H](C(=O)N[C@@H](Cc1ccc(O)cc1)C(=O)N1CCC[C@H]1C(=O)N[C@@H](CCCNC(=N)N)C(=O)N[C@H](C(=O)N[C@@H](CCC(=O)O)C(=O)N[C@H](C(=O)NCC(=O)N[C@@H](CO)C(=O)NCC(=O)N[C@@H](CO)C(=O)N1CCC[C@H]1C(N)=O)[C@@H](C)O)[C@@H](C)O)[C@@H](C)O
notes: also called Ex. #92
For the molecule B2, the IC50 was 2.94 nM.

B3: [N-terminal(C18 diacid-gGlu), des1, 9V, 30S, 31G]mimylin (peptide)
peptide: {C18 diacid-γGlu}-ASELSTAVLGRLSAELHELATLPRTETGSGSP-NH2
SMILES: CC(C)C[C@H](NC(=O)[C@H](CCC(=O)O)NC(=O)[C@H](Cc1c[nH]cn1)NC(=O)[C@H](CC(C)C)NC(=O)[C@H](CCC(=O)O)NC(=O)[C@H](C)NC(=O)[C@H](CO)NC(=O)[C@H](CC(C)C)NC(=O)[C@H](CCCNC(=N)N)NC(=O)CNC(=O)[C@H](CC(C)C)NC(=O)[C@@H](NC(=O)[C@H](C)NC(=O)[C@@H](NC(=O)[C@H](CO)NC(=O)[C@H](CC(C)C)NC(=O)[C@H](CCC(=O)O)NC(=O)[C@H](CO)NC(=O)[C@H](C)NC(=O)CC[C@H](NC(=O)CCCCCCCCCCCCCCCCC(=O)O)C(=O)O)[C@@H](C)O)C(C)C)C(=O)N[C@@H](C)C(=O)N[C@H](C(=O)N[C@@H](CC(C)C)C(=O)N1CCC[C@H]1C(=O)N[C@@H](CCCNC(=N)N)C(=O)N[C@H](C(=O)N[C@@H](CCC(=O)O)C(=O)N[C@H](C(=O)NCC(=O)N[C@@H](CO)C(=O)NCC(=O)N[C@@H](CO)C(=O)N1CCC[C@H]1C(N)=O)[C@@H](C)O)[C@@H](C)O)[C@@H](C)O
notes: also called Ex. #76
Consider B3, for which the 50% inhibitory concentration (IC50) worked out at 0.855 nM.

B4: [N-terminal(C20 diacid-gGlu), des1, 4G, 23Y, 30S, 31G]mimylin (peptide)
peptide: {C20 diacid-γGlu}-ASGLSTAALGRLSAELHELATYPRTETGSGSP-NH2
notes: also called Ex. #79
On to B4, for which the IC50 was found to be 0.385 nM.

B5: [N-terminal(C18 diacid-gGlu), des1, 30S, 31G, 32P]mimylin (peptide)
peptide: {C18 diacid-γGlu}-ASELSTAALGRLSAELHELATLPRTETGSGPP-NH2
SMILES: CC(C)C[C@H](NC(=O)[C@H](C)NC(=O)[C@H](C)NC(=O)[C@@H](NC(=O)[C@H](CO)NC(=O)[C@H](CC(C)C)NC(=O)[C@H](CCC(=O)O)NC(=O)[C@H](CO)NC(=O)[C@H](C)NC(=O)CC[C@H](NC(=O)CCCCCCCCCCCCCCCCC(=O)O)C(=O)O)[C@@H](C)O)C(=O)NCC(=O)N[C@@H](CCCNC(=N)N)C(=O)N[C@@H](CC(C)C)C(=O)N[C@@H](CO)C(=O)N[C@@H](C)C(=O)N[C@@H](CCC(=O)O)C(=O)N[C@@H](CC(C)C)C(=O)N[C@@H](Cc1c[nH]cn1)C(=O)N[C@@H](CCC(=O)O)C(=O)N[C@@H](CC(C)C)C(=O)N[C@@H](C)C(=O)N[C@H](C(=O)N[C@@H](CC(C)C)C(=O)N1CCC[C@H]1C(=O)N[C@@H](CCCNC(=N)N)C(=O)N[C@H](C(=O)N[C@@H](CCC(=O)O)C(=O)N[C@H](C(=O)NCC(=O)N[C@@H](CO)C(=O)NCC(=O)N1CCC[C@H]1C(=O)N1CCC[C@H]1C(N)=O)[C@@H](C)O)[C@@H](C)O)[C@@H](C)O
notes: also called Ex. #75
B5: the IC50 is 20.5 nM.

B6: [N-terminal(C18 diacid-gGlu), des1, 30S]mimylin (peptide)
peptide: {C18 diacid-γGlu}-ASELSTAALGRLSAELHELATLPRTETGSESP-NH2
SMILES: CC(C)C[C@H](NC(=O)[C@H](C)NC(=O)[C@H](C)NC(=O)[C@@H](NC(=O)[C@H](CO)NC(=O)[C@H](CC(C)C)NC(=O)[C@H](CCC(=O)O)NC(=O)[C@H](CO)NC(=O)[C@H](C)NC(=O)CC[C@H](NC(=O)CCCCCCCCCCCCCCCCC(=O)O)C(=O)O)[C@@H](C)O)C(=O)NCC(=O)N[C@@H](CCCNC(=N)N)C(=O)N[C@@H](CC(C)C)C(=O)N[C@@H](CO)C(=O)N[C@@H](C)C(=O)N[C@@H](CCC(=O)O)C(=O)N[C@@H](CC(C)C)C(=O)N[C@@H](Cc1c[nH]cn1)C(=O)N[C@@H](CCC(=O)O)C(=O)N[C@@H](CC(C)C)C(=O)N[C@@H](C)C(=O)N[C@H](C(=O)N[C@@H](CC(C)C)C(=O)N1CCC[C@H]1C(=O)N[C@@H](CCCNC(=N)N)C(=O)N[C@H](C(=O)N[C@@H](CCC(=O)O)C(=O)N[C@H](C(=O)NCC(=O)N[C@@H](CO)C(=O)N[C@@H](CCC(=O)O)C(=O)N[C@@H](CO)C(=O)N1CCC[C@H]1C(N)=O)[C@@H](C)O)[C@@H](C)O)[C@@H](C)O
notes: also called Ex. #23
As for B6, the IC50 is 0.541 nM.

B7: [N-terminal(C20 diacid-gGlu), des1, 9S, 21S, 23Y, 30S, 31G, 33Y]mimylin (peptide)
peptide: {C20 diacid-γGlu}-ASELSTASLGRLSAELHELSTYPRTETGSGSY-NH2
SMILES: CC(C)C[C@H](NC(=O)[C@H](CO)NC(=O)[C@H](C)NC(=O)[C@@H](NC(=O)[C@H](CO)NC(=O)[C@H](CC(C)C)NC(=O)[C@H](CCC(=O)O)NC(=O)[C@H](CO)NC(=O)[C@H](C)NC(=O)CC[C@H](NC(=O)CCCCCCCCCCCCCCCCCCC(=O)O)C(=O)O)[C@@H](C)O)C(=O)NCC(=O)N[C@@H](CCCNC(=N)N)C(=O)N[C@@H](CC(C)C)C(=O)N[C@@H](CO)C(=O)N[C@@H](C)C(=O)N[C@@H](CCC(=O)O)C(=O)N[C@@H](CC(C)C)C(=O)N[C@@H](Cc1c[nH]cn1)C(=O)N[C@@H](CCC(=O)O)C(=O)N[C@@H](CC(C)C)C(=O)N[C@@H](CO)C(=O)N[C@H](C(=O)N[C@@H](Cc1ccc(O)cc1)C(=O)N1CCC[C@H]1C(=O)N[C@@H](CCCNC(=N)N)C(=O)N[C@H](C(=O)N[C@@H](CCC(=O)O)C(=O)N[C@H](C(=O)NCC(=O)N[C@@H](CO)C(=O)NCC(=O)N[C@@H](CO)C(=O)N[C@@H](Cc1ccc(O)cc1)C(N)=O)[C@@H](C)O)[C@@H](C)O)[C@@H](C)O
notes: also called Ex. #100
In the case of B7, the IC50 was 2.82 nM.

B8: [N-terminal(C18 diacid-gGlu), des1, 6T, 9V, 30T, 31G, 32T]mimylin (peptide)
peptide: {C18 diacid-γGlu}-ASELTTAVLGRLSAELHELATLPRTETGTGTP-NH2
notes: also called Ex. #95
In the case of B8, the IC50 was 1.7 nM.
